# Test results published in publication PMC3764826, “Bpur, the Lyme Disease Spirochete's PUR Domain Protein”.
# T1: Bpur (Borrelia burgdorferi B31, UniProt O51076 1-122)
# T1 sequence: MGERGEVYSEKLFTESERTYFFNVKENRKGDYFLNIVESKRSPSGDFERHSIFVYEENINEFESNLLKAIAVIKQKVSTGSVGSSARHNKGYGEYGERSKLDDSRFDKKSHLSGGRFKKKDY
# Columns and labels:
# Bpur [1] = biological target: T1, Bpur; assay: EMSA; EMSA: 50 mM Tris pH 7.5, 25 mM KCl, 1 mM MgCl2, 100 nM DTT, 10% glycerol, 0.01% Tween 20, 0.1% PMSF; temperature not stated; RNA/ssDNA probes preheated at 56 C, RiboGuard with RNA; settings: protein: recombinant, tags: His tag (pET101, nickel purification), chain copies: 2
# Bpur [2] = biological target: T1, Bpur; assay: EMSA; 50-500 nM Bpur; EMSA: 50 mM Tris pH 7.5, 25 mM KCl, 1 mM MgCl2, 100 nM DTT, 10% glycerol, 0.01% Tween 20, 0.1% PMSF; temperature not stated; RNA/ssDNA probes preheated at 56 C, RiboGuard with RNA; settings: protein: recombinant; tags: His tag (pET101, nickel purification); chain copies: 2; label: 5' biotin
# Bpur [3] = biological target: T1, Bpur; assay: EMSA; simultaneous with Bio-3; EMSA: 50 mM Tris pH 7.5, 25 mM KCl, 1 mM MgCl2, 100 nM DTT, 10% glycerol, 0.01% Tween 20, 0.1% PMSF; temperature not stated; RNA/ssDNA probes preheated at 56 C, RiboGuard with RNA; settings: protein: recombinant; tags: His tag (pET101, nickel purification); chain copies: 2; label: 5' biotin
# Bpur [4] = biological target: T1, Bpur; assay: EMSA; simultaneous with Bio-2; EMSA: 50 mM Tris pH 7.5, 25 mM KCl, 1 mM MgCl2, 100 nM DTT, 10% glycerol, 0.01% Tween 20, 0.1% PMSF; temperature not stated; RNA/ssDNA probes preheated at 56 C, RiboGuard with RNA; settings: protein: recombinant; tags: His tag (pET101, nickel purification); chain copies: 2; label: 5' biotin
# Bpur [5] = biological target: T1, Bpur; assay: competition; 100-fold excess vs Bio-1; EMSA: 50 mM Tris pH 7.5, 25 mM KCl, 1 mM MgCl2, 100 nM DTT, 10% glycerol, 0.01% Tween 20, 0.1% PMSF; temperature not stated; RNA/ssDNA probes preheated at 56 C, RiboGuard with RNA; settings: protein: recombinant; tags: His tag (pET101, nickel purification); chain copies: 2
binder,measurement,setting,value
Bio-sense-RNA (ssRNA) RNA: AAUGGAGAGAUUUUGGGGAGUUGUUUAAAAUUACAUUUGCGUUUUGUUAAAAUG,Kd,Bpur [1]; label: 5' biotin,13 nM
Bio-dsDNA (dsDNA) DNA 1: AATGGAGAGATTTTGGGGAGTTGTTTAAAATTACATTTGCGTTTTGTTAAAATG DNA 2: CATTTTAACAAAACGCAAATGTAATTTTAAACAACTCCCCAAAATCTCTCCATT,Kd,"Bpur [1]; label: 5' biotin (one strand), blunt",130 nM
Bio-1 (dsDNA) DNA 1: GAGTAGTGCATTTGCAATGGAGAGATTTTGGGGAGTTGTTTAAAATTACATTTGCGTTTTGTTAAAATGTAACAGCTGAATGTAACAAAATTATATATTTAAATCTTGAAATA DNA 2: TATTTCAAGATTTAAATATATAATTTTGTTACATTCAGCTGTTACATTTTAACAAAACGCAAATGTAATTTTAAACAACTCCCCAAAATCTCTCCATTGCAAATGCACTACTC,binding result,Bpur [2],binds
Bio-2 (dsDNA) DNA 1: TAAAATTACATTTGCGTTTTGTTAAAATGTAACAGCTGAATGTAAC DNA 2: GTTACATTCAGCTGTTACATTTTAACAAAACGCAAATGTAATTTTA,binding result,Bpur [3],no binding
Bio-3 (dsDNA) DNA 1: GGAGAGATTTTGGGGAGTTGTTTAAAATTACATTTGCGTTTTGTTAAAATGTAAC DNA 2: GTTACATTTTAACAAAACGCAAATGTAATTTTAAACAACTCCCCAAAATCTCTCC,binding result,Bpur [4],binds
Bio-sense-ssDNA (ssDNA) DNA: AATGGAGAGATTTTGGGGAGTTGTTTAAAATTACATTTGCGTTTTGTTAAAATG,Kd,Bpur [1]; label: 5' biotin,390 nM
competitor C (dsDNA) DNA 1: GTAGTGCATTTGCAATGGAGAGATTTTGGGGAGTTGTTTAAAATTAC DNA 2: GTAATTTTAAACAACTCCCCAAAATCTCTCCATTGCAAATGCACTAC,binding result,Bpur [5],binds
